{
  "source": "paper PMC3774140",
  "key": {"[1]": {"molecular_target": "SKN-1 50 amino acid bait construct encoding the lax188(E237K) mutation (C. elegans)", "experiment": "two-hybrid"}, "[2]": {"molecular_target": "SKN-1 50 amino acid bait construct encoding the lax120(S245L) mutation (C. elegans)", "experiment": "two-hybrid"}},
  "data": [
    {"substance": "PGAM-5 (Y2H prey from the cDNA library) (natural protein)", "values": [
      {"measurement": "percent decrease of the interaction against the wild-type 50-mer bait", "setting": "[1]", "value": 72, "unit": "%"},
      {"measurement": "percent decrease of the interaction against the wild-type 50-mer bait", "setting": "[2]", "value": 75, "unit": "%"}
    ]}
  ]
}
